Source: patent US20230374104A1 (SEATTLE CHILDREN S HOSPITAL DBA SEATTLE CHILDREN S RESEARCH …, published 2023)

Tests used:
[1] = molecular target: soluble PD-L1 (UniProt Q9NZQ7); test: cell binding (H9 cells); printed as pg/ul
[2] = molecular target: T1, soluble PD-L1 (UniProt Q9NZQ7 19-238, limits assumed); test: competitive binding assay: mixed H9 cells expressing PD1(WT):CD28 (cell trace violet positive) and PD1(A99L):CD28 (negative), incubated with soluble PD-L1 (0.02 pg/uL to 20 ng/ul) for 30 min, streptavidin-APC, flow cytometry
T1 construct: also called PD1-L1
Experimental: A competitive binding assay was performed to determine relative binding affinity between PD1 chimeric polypeptides, in particular PD1(WT):CD28 polypeptide, and the PD1(A99L):CD28 polypeptide.
A population of H9 cells containing PD1(WT):CD28 polypeptide were labeled with cell trace violet were mixed with a population of H9 cells containing PD1(A99L):CD28 polypeptide. The cells were then incubated with soluble PD-L1 (0.02 pg/uL to 20 ng/ul) for 30 min and then stained with streptavidin-APC. The two populations were separated out by flow analysis into cell trace violet positive (H9 cells containing PD1(WT):CD28 polypeptide) and cell trace violet negative (H9 cells containing PD1(A99L):CD28 polypeptide) populations. The populations were analyzed for APC positivity.

soluble PD-L1 (UniProt Q9NZQ7), sequence (Q9NZQ7 19-238): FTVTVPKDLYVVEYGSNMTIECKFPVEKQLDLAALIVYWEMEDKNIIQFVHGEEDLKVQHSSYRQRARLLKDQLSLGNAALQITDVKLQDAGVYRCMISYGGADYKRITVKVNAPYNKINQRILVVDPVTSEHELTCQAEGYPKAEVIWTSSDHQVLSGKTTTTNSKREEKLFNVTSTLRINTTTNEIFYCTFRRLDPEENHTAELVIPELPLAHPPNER
T1 sequence (Q9NZQ7 19-238 limits assumed): as the sequence (Q9NZQ7 19-238) above

PD1(WT):CD28 polypeptide
Kd [1]: 0.029 µg/mL

PD1(A99L):CD28 polypeptide
Kd [1]: 0.0033 µg/mL

B1: PD1(A99L):CD28 polypeptide (receptor)
chain: LDSPDRPWNPPTFSPALLVVTEGDNATFTCSFSNTSESFVLNWYRMSPSNQTDKLAAFPEDRSQPGQDCRFRVTQLPNGRDFHMSVVRARRNDSGTYLCGAISLAPKLQIKESLRAELRVTERRAEVPTAHCPSPLFPGPSKPFWVLVVVGGVLACYSLLVTVAFIIFWVRSKRSRLLHSDYMNMTPRRPGPTRKHYQPYAPPRDFAAYRS
notes: Position 99 is not counted from the initiating Met of the encoded open reading frame, where the changed alanine appears to lie near position 132
fold binding affinity relative to PD1(WT):CD28 polypeptide [2]: ~9 fold
